Measurements reported in patent publication US20080220446A1, “Method for Detecting and/or Removing Protein and/or Peptide Comprising a Cross-Beta Structure From an Aqueous Solution Comprising a Protein” (priority 2005, published 2008).

How the values were obtained:
tPA [1] = molecular target: T1, tPA (Homo sapiens, UniProt P00750); test: ELISA, binding of β2GPI to immobilized tPA
Experimental: (§1) Binding of purified human factor XII from plasma (Calbiochem) or of purified recombinant human tPA to β2GPI purified from human plasma, or to recombinant human β2GPI was tested in an ELISA. Ten μg of factor XII or tPA in PBS was coated onto wells of a Costar 2595 ELISA plate (Cambridge, USA) and incubated with concentration series of the two β2GPI preparations. Binding of β2GPI was assessed with monoclonal antibody 2B2^22.

factor XII = molecular target: T2, factor XII (Homo sapiens, UniProt P00748); test: ELISA, binding of β2GPI to immobilized factor XII
T2 construct: purified human factor XII from plasma (Calbiochem); purchased Calbiochem; host or cells: human plasma
T2 sequence (P00748 20-615): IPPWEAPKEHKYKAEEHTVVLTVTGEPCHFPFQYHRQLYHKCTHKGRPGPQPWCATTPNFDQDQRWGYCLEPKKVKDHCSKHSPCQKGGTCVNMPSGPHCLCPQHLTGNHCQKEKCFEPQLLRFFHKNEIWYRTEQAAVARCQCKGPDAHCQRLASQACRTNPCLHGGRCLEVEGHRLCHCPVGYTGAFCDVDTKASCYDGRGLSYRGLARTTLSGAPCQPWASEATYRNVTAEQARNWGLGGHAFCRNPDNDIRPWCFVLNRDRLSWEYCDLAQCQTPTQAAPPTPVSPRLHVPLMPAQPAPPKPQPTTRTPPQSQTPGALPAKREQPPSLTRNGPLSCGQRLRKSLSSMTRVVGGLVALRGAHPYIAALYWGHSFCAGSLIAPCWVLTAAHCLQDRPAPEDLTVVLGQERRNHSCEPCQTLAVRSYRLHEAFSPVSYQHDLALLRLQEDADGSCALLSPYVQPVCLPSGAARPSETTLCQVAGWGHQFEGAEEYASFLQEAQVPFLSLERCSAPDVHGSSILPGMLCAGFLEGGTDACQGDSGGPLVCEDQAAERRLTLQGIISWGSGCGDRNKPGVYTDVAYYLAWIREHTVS
Experimental: as §1

tPA [2] = molecular target: T1, tPA; test: Plasminogen-activation assay (tPA activation, S-2251); format: biochemical; conditions: β2GPI preparations, 100 μg ml^−1
Experimental: Plasmin (Pls) activity was assayed as described^16. Peptides and proteins that were tested for their stimulatory ability were regularly used at 100 μg ml^−1. […] Chromogenic substrate S-2251 (Chromogenix, Instrumentation Laboratory SpA, Milano, Italy) was used to measure Pls activity. Conversion of zymogen factor XII (#233490, Calbiochem, EMD Biosciences, Inc., San Diego, Calif.) to proteolytically active factor XII (factor XIIa) was assayed by measurement of the conversion of chromogenic substrate Chromozym-PK (Roche Diagnostics, Almere, The Netherlands) by kallikrein. Chromozym-PK was used at a concentration of 0.3 mM. […] The conversion of Chromozym-PK was recorded kinetically at 37° C. for at least 60 minutes. […]
Formulated protein therapeutics were obtained from the local hospital pharmacy and were used as supplied by the manufacturers. […] Enhancement in fluorescence of ThT and Congo red was measured with all formulated protein therapeutics. […]
(§2) To prepare structurally altered ovalbumin (OVA) with amyloid cross-β structures, purified OVA (Sigma, A-7641, lot 071k7094) was heated to 85° C. […] Native OVA (nOVA) and heat-denatured OVA (dOVA) were tested in the ThT fluorescence assay and in the Plg-activation assay. In the fluorescence assay and in the Plg-activation assay, 25 and 100 μg ml^−1 nOVA and dOVA were tested, respectively. […]

[3] = Thioflavin T fluorescence of protein solutions; format: physicochemical; conditions: after exposure to CL or DXS500k
Experimental: Fluorescence of ThT—protein/peptide adducts was measured as follows. […] Fluorescence was measured at 485 nm upon excitation at 435 nm. Background signals from buffer, buffer with ThT and protein/peptide solution without ThT were subtracted from corresponding measurements with protein solution incubated with ThT. Regularly, fluorescence of Aβ was used as a positive control, and fluorescence of FP10, a non-amyloid fibrin fragment^16, was used as a negative control. Fluorescence was measured in triplicate on a Hitachi F-4500 fluorescence spectrophotometer (Ltd., Tokyo, Japan).
Formulated protein therapeutics were obtained from the local hospital pharmacy and were used as supplied by the manufacturers. […] Lyophilized therapeutics were dissolved according to the manufacturers recommendations. GH, zinc-insulin, Cealb and gelatin were stored at −20, 4, room temperature, 37 and 65° C. Other protein therapeutics were only kept at 4° C., and assayed for the presence of cross-β structure at shown time points. Enhancement in fluorescence of ThT and Congo red was measured with all formulated protein therapeutics. […]
ThT fluorescence of β2GPI was measured as follows. […] In the ThT fluorescence assay, fluorescence of β2GPI in buffer, of CL or DXS500k in buffer, of buffer and ThT alone, and of β2GPI-CL adducts and β2GPI-DXS500k adducts, with or without ThT, was recorded as described above (section ThT fluorescence). In addition, TEM images were recorded with CL, β2GPI from human plasma, with or without CL, and with recombinant β2GPI, as described^5.
as §2
MSA (#126674, Calbiochem) was dissolved in 8 M urea, 100 mM Tris-HCl pH 8.2, at 10 mg ml^−1 final concentration. […] The presence of aggregates or fibrils was analyzed using TEM. […]

tPA [4] = molecular target: T1, tPA; test: tPA/plasminogen activation assay; format: biochemical; conditions: β2gpi exposed to cardiolipin or alkylated, 100 μg/ml
Experimental: β2-GPI was reduced and alkylated as follows. Sixhundredforty μl of β2-GPI stock was mixed with 640 μl of 8 M Urea (cooled solution) in 0.1 M Tris pH-8.2. The solution was degassed with N2 gas for approximately 6 minutes. From a 1 M DTT stock 12.8 μl was added to the solution, mixed and incubated for 3 hours at room temperature. A 1 M Iodoacetamide (Sigma; I-6125) was prepared, of which 25.6 μl was added to the β2-GPI reaction mixture. The solution was subsequently dialysed against PBS. […] Signals obtained with alkyl-β2gpi are compared with those obtained with native β2gpi starting material and with positive control acid/heat denatured amyloid-like misfolded γ-globulins.
Exiqon Peptide Immobilizer plates were blocked for 1 hour with PBS, 1% Tween20 and rinsed twice with distilled water. The conversion of the chromogenic substrate S-2251 (Chromogenix, Italy) by plasmin was kinetically measured at 37° C. on a Spectramax340 microplate reader at a wavelength of 405 nm. […] Denatured γ-globulins (100 μg/ml) with amyloid-like structure was used as reference and positive control. Lyophilized γ-globulins (Sigma, Mo., USA) were dissolved in a 1(:)1 volume ratio of 1,1,1,3,3,3-hexafluoro-2-propanol and trifluoro-acetic acid and subsequently dried under air. […]
Protein therapeutics were obtained from the local hospital pharmacy and analyzed within the expiry limits as stated by the manufacturers.

T1 sequence (P00750 36-562): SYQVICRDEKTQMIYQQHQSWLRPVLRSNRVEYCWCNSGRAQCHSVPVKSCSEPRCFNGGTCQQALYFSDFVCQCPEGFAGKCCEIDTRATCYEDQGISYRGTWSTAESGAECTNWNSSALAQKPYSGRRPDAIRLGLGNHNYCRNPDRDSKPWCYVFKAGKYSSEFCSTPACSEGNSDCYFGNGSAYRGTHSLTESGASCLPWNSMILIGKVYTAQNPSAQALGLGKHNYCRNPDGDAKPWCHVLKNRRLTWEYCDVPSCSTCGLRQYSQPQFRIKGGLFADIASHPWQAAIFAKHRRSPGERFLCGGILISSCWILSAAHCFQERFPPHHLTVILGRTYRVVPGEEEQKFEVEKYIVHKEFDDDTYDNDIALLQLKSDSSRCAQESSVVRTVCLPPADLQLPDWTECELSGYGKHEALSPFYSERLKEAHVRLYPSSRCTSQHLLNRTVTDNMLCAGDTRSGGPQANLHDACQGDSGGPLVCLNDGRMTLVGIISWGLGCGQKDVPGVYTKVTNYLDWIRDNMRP

B1: β2GPI purified from fresh plasma: β2-glycoprotein I purified from fresh human plasma (protein)
chain: GRTCPKPDDLPFSTVVPLKTFYEPGEEITYSCKPGYVSRGGMRKFICPLTGLWPINTLKCTPRVCPFAGILENGAVRYTTFEYPNTISFSCNTGFYLNGADSAKCTEEGKWSPELPVCAPIICPPPSIPTFATLRVYKPSAGNNSLYRDTAVFECLPQHAMFGNDTITCTTHGNWTKLPECREVKCPFPSRPDNGFVNYPAKPTLYYKDKATFGCHDGYSLDGPEEIECTKLGNWSAMPSCKASCKVPVKKATVVYQGERVKIQEKFKNGMLHGDKVSFFCKNKEKKCSYTEDAQCIDGTIEVPKCFKEHSSLAFWKTDASDVKPC
tPA [1]; listed as β2GPI purified from fresh human plasma
  binding to tPA: not
tPA [1]; listed as β2GPI purified from plasma
  binding to tPA: does not bind
Factor XII
  binding to factor XII: not
tPA [2]
  stimulation of tPA-mediated conversion of Plg to Pls: not
[3]
  ThT fluorescence signal: increased ThT fluorescence signal

B2: CL-β2gpi: β2gpi exposed to cardiolipin (protein)
chain: GRTCPKPDDLPFSTVVPLKTFYEPGEEITYSCKPGYVSRGGMRKFICPLTGLWPINTLKCTPRVCPFAGILENGAVRYTTFEYPNTISFSCNTGFYLNGADSAKCTEEGKWSPELPVCAPIICPPPSIPTFATLRVYKPSAGNNSLYRDTAVFECLPQHAMFGNDTITCTTHGNWTKLPECREVKCPFPSRPDNGFVNYPAKPTLYYKDKATFGCHDGYSLDGPEEIECTKLGNWSAMPSCKASCKVPVKKATVVYQGERVKIQEKFKNGMLHGDKVSFFCKNKEKKCSYTEDAQCIDGTIEVPKCFKEHSSLAFWKTDASDVKPC
tPA [4]
  ability to activate tPA/plasminogen: accelerated
